From the DeepSol protein solubility set come the findings set out here.

This data set is described as follows: soluble on expression in E. coli; label from the status in PepcDB or PDB records.
For the sequence “MGHHHHHHSHMSWWDYGYQIAGMANRTTLVDNNTWNNSHIALVGKAMSSNETAAYKIMRTLDVDYVLVIFGGVIGYSGDDINKFLWMVRIAEGEHPKDIRESDYFTPQGEFRVDKAGSPTLLNCLMYKMSYYRFGEMQLDFRTPPGFDRTRNAEIGNKDIKFKHLEEAFTSEHWLVRIYKVKAPDNRETLDHKPRVTNIFPKQKYLSKKTTKRKRGYIKNKLVFKKGKKIFKKTV”, the “soluble on expression in E. coli” value is reported as “not soluble”.
For “MGSDKIHHHHHHMLNKLCMYLERPELYKQSEINFWDDEYISKQLLKAHLDTNFEGASRNFNFIEDSVNWIVTVANPANYPKLLDLGCGPGLYAEKFAQKGYKVTGIDFSKRSINYAQNRNKETNLNINYLFQSYLNMNYNEEFDLATLIYCDYGALSTENRRLLMEKIYDSLKPGGKLILDVFTINKYNNFEEIKYWEINEDGGFWSNEKYMCLQDNCKYNDYNTLEQTLVITEKDENVFYVWNHYFSKESFLLEVENIGFKSVEFFSNVKGEAYSDDSMTMGLVLQK” the value was “not soluble”.
Under “MAHHHHHHMIVVSSPKATNYDEWEKQLKARRIIMNCPDEMVVKAMCAWMKRGLEPDKQVECWNMVEKHMEKVGPIPRHIFDEDDYIDRMSAVDDALLSIKPTDVGEHFTLRGSKLWYSEVPSHKLLKVVREITEKGAEVFLNASISADIGFRIADRLEKEMATKDFLLLILRWRDALVSHALEKLGLRAFMYGELVIAIVEGLKELPPPSPSKPRSSVLKVNYQGYPTRAVGLKELQGGVTRIPMEYRVLYIPKVENFPLVDGFFFVDSPRKTLVGLQMTTASAHHKITSTVNLFNERMAEYFNGWEELSRDLSWEMIYIQHALSKEISKWQRCGPVNTENLSDTEKEIVAFWDGRVHQYQFVLTPDFVSKIREMRIQQSWGKGIGKKVREIIGEQSAFRFGKYIGKYFNDFYVCVCAYGV” stands “not soluble”; under “MGSDKIHHHHHHMGDSMSLDWDKLRIFHAAAEAGSFTHAADKLHLSQSAISRQVSSLEQDVGIKLFHRHARGLILTEQGEMLYRTAHDVLMKLESVKAQLSETTDKPSGKLRITTTVGLGQGWLTDKIQEFMSLYPEIQVQLILDNEELDVNMRHADCAIRLRQPQQSDLIQRKLFTVHMHVYAAPSYINKYGEPQSLDDLDNHRIITFGEPAPNYLLDVNWLEIAGRDSDNPRISHLQINSQTSIKRACLLGIGIAMLPDYIVGRDPGLIQLPISADIPSFDTYFCYPDELKNAAKLKVFRDYIVAKARNWNF”, “not soluble”; under “MIFLIVLKYPVSLNVIRKLKTGDVVYYTGKIVVMDRSVVDILEKYERYEGTKLYDLTGEIVVLGTFRKNKLQFQEMTEELLERLFLLGVNGVILERVRPFSATKRFSRVLFEPLEEIRGTRRVIYKTPDSKKLEELEVEKLVLRVVQDSSGKVYSKV”, “not soluble”.
For “MGSDKIHHHHHHMLKKESIHFINKNRSLIVCEDNFVYLLPCIQLRNWISNFTISFPNQTIISDNYTIIPHGSVTLVFFYDATGLHSLLFGPTTKPKTVGNIANRCDVILIIEFQPAGFFPLIGIQQSELIDKVVPFSIINTSLDLEIKKIFNESLSIDKLILKLEELLISNIKIEYSYEFILAIQLIIQNSGNISSQEISKKVFYSSRHLNRLFNQYLGLSMKSFSRLVRINKSIKLLNNNKTSLMSICNELGFYDIPHFIKDFKIVCGITPQKYRANMSDFYSEIAKF” the value was “not soluble”.
“MGSDKIHHHHHHMSDVKGKNMTKKKPVLKRFNYRLNKLHVKNLKGIKDFTLNFEKDKLVTGIVGINGSGKSTLIHALACAFKPIGKATSKDFNRLSHFFTPNKDASWEGSEFEIEFEFDELTIKPNSEPTKKLINHTEVYSKKQGKKVSRWLPIYGRRHERESAYIGLHDLATLSEDKNAGRYKEYETEDLAHEASDKIKEDLVYILGRNYNRLTTCLVKQKDKVHTLFGLVFNGVEYSEHSMGAGEKRLLTILSALHNPKLAKGGLLLIDEIDVLLHGMAFKRLIERIIKRANENKIEVIFSTHRETIIDFKNDLLIYGVLNTGKGVIPMPHTHPQVMQQLTGVRTVPIEIYVEDDLATSVIETLLYQKHATHYVNITKFGTWSNAFAILAGKILMDSDISETLCVLDGDVCNTIEERTSECQRHLNGDDKNEHRQSMLNHIVEFKLANIAPQGSGGSPEYNIKIMFESIESDDPRVVELQRYSREMQGLEDWHVYFDILAETSGIRTARDKVLEAISETGQWNDYIVEISNWLDEKLKIYLPVRVQEEENLVTV”: the “soluble on expression in E. coli” value is recorded as “not soluble”.
Under “MAHHHHHHMCDTANEADGKKLNKKAKSISVVKFKDKEKKKFVSLSSKEETSVQDLPLGCPVCYVPLTVDFNLLNQVEEQDEEEMIVCKEETTYINKSFINRINTNEYRSSTKIEAVFEEVKNVIHTTDDKCLIFSQYCSMLDLIEYHLKKHNIICSKLLGYMPMVSRNNILYNFNEDKHLRVLLISLKAGGEGLNLQVANRIFIVDPWWNPAAELQAIQRAHRIGQTKTVYATRFIIENTVEEKIVQLQNKKQLVFDCTIGDSGNAMQKLTKEDLAFLFHA” stands “not soluble”; under “MGSDKIHHHHHHMSRVNELVGTLFTGGRKPDDLYGRVFVVSAFGGITNLLLEHKKTGEPGVYARFADAESDHGWHEALSRVGDEMRKAHEAVLENAGDVAQADAFVSERIEGARNCLIDLQRLCSYGHFRLAEHMLQIRELLSGLGEAHSAYVTALLLQRAGVNARFVDLSGWRDEGDVTLEERISSALNDVDPATEMPIVTGYAQCAEGLMREFDRGYSEVTFSCLAALTGASEAIIHKEFHLSSADPKLVGEGVAQKLGHTNYDVADQMSNMGMEAIHPKAAKTLRQADVPLRVTNAFEPEDPGTLIDDKPADQPAVEMITGLDIIALELFEQDMVGVKGYDAAILEVLTRHDVRIVSKTSNANTITHYLDTSLTVLKRVEKDLAKIYPNADISARLLSMASAIGRDLKGLSVLTRGLQAIADVGLASLGASQGPRNVDVQFIVEREDLKPVISALHKVLVEGRPAKQEKPIKAAA”, “not soluble”; under “MGSDKIHHHHHHMNLYEKLAEDIETSIRQGVYRHGERLPSVRQISQQHRISVTTAIRAYLLLESRGLVTSRPQSGYFVNRRDESERKALELRPSKPIPISSPVDVSRLVLSTLRSIGVDDAVPLGSPYPDPSLFPFERINRYAYDAGRGKAQWGVTDALPPGNAKLVRQIARRYLENGMAVDPNEIIITVGATEAINLCLQAVAKPGDVIAVESPTFYAMLHAIERMGMKAIEVSTHPEHGIDIEALAAIVESQPIAACMVMPNFQNPLGFLMPDERKRELVELLTKRNIPVIENGVYNELHFDSPHPSTLKSFDTKGLVLHCSSFSKSLTSAYRIGWALPGRYRDQVEKLKFLNTLTSPSIPQLAIAEFLERDGFEHHLRKVRKAYAQQANLMKAIVSRFFPEGTRMSNPAGGYVLWVELPPRVDSMRLYKLALDQGITIGPGYMFSVSETTYRNFIRLNYSSPWSGEIEQAVITVGKLVSMCAS”, “not soluble”.
For “MSQQKIGVLLVNLGTPEHPTAPAIRKFLKPFLADSRVIDYPKFLWKPILYSFILPFRPRKVKPLYQHVWTNEGSPLYANAIGQEKALQAHFDQSEHGVLVRATMAYSKPSISDVVDEFLKEKVAKMIVLPLFPQYSSTTTAAIFDAFAQSLKKKKDIPPFDFIHHYYERPSYIQALAQTIHLQENEHLLFSFHGIPQRYVIEGDYYTEHCQQTAQLIAVAAGLSEEQWQVSYQSRFGPEEWTRPYTDETLIQLPKQGKKKLAVICPGFAADCLETLEEIDITNRKHFMAAGGQAYRYIPALNASPAHIQLLAELISERL” the value was “not soluble”; for “MRALAKLAPEEGLTLVDRPVPEPGPGEILVRVEAASICGTDLHIWKWDAWARGRIRPPLVTGHEFSGVVEAVGPGVRRPQVGDHVSLESHIVCHACPACRTGNYHVCLNTQILGVDRDGGFAEYVVVPAENAWVNPKDLPFEVAAILEPFGNAVHTVYAGSGVSGKSVLITGAGPIGLMAAMVVRASGAGPILVSDPNPYRLAFARPYADRLVNPLEEDLLEVVRRVTGSGVEVLLEFSGNEAAIHQGLMALIPGGEARILGIPSDPIRFDLAGELVMRGITAFGIAGRRLWQTWMQGTALVYSGRVDLSPLLTHRLPLSRYREAFGLLASGQAVKVILDPKA”, “soluble”.
“MSVLYIQIRRNQITVRDLESKREVSGDAAFSNQRLLIANFFVAEKVLQDLVLQLHPRSTWHSFLPAKRMDIVVSALEMNEGGLSQVEERILHEVVAGATLMKYRQFHIHAQSAVLSDSAVMAMLKQK”: the “soluble on expression in E. coli” value is on record as “soluble”.
For “MEADRKADNGNAGFSLVCHPEERITYRVGNKVICCLDGSRIGIQFETSTAGETYEVYHCVLESKSFLEKMIVLEHTIPFFLPLSDLENDLLFSNAKKFIDNVGDLLQAYVDRKEQVRLIKELFGHQISEIYHSLPYHMIEFSMDDCDCKFVVSLRYGDLLCELPTKVRILVWPMHHLSKKQCTSPGSPAIPVRLPFAEDAFRIQSLPEAYAEIMPNMPNEIRQLFQTSPS” the value was “soluble”; for “MQCALYDAGRCRSCQWITQPIPEQLSAKTADLKNLLADFPVEEWCAPVSGPEQGFRNKAKMVVSGSVEKTLLGMLHRDGTPEDLCDCPLYPASFAPVFAALKPFIARAGLTPYNVARKRGELKYILLTESQSDGGMMLRFVLRSDTKLAQLRKALPWLHEQLPQLKVITVNIQPVHMAIMEGETEIYLTEQQALAERFNDVPLWIRPQSFFQTNPAVASQLYATARDWVRQLPVKHMWDLFCGVGGFGLHCATPDMQLTGIEIAPEAIACAKQSAAELGLTRLQFQALDSTQFATAQGEVPELVLVNPPRRGIGKPLCDYLSTMAPRFIIYSSCNAQTMAKDIRELPGYRIERVQLFDMFPHTAHYEVLTLLVKQ”, “not soluble”.
Under “MRFIPLIVARPEVQMAIDEAILIARSEGRVPDTVRLYVFKPSSVTIGRFQSVRYDVNLEKAKELGIPVVRRITGGGSVFHDEYGEITYSVVISEDYHPMLKNIQDSYRFLAGPLVDALKDLGIEAEFSGLNDIVVRGKKISGSAQTRRRGIILQHGTLMYATRLEILGSVLKVSKEKLKDKGVKSIFERVTTLEREGIKVGRNEMYEVLRNSFFRAFPLDEGELTEYELELVEKLIEERYGNDKWNFQKLEHHHHHH” stands “soluble”; under “MSTTGSAPPNSKLKSVEDTDDDRTLAEDDQNDQNSGSMDHRFERIKVTLMMTQGKKFGLGIVSVHQRILVCKVENESLVAGVLKYGDQIIEINKKNVLNKIDCKKRLMQCLKDKGQVDIIIVRPKTADAVTMIEQEIQLSQQPSTTAQPKIN”, “not soluble”; under “GVSTAVAQDFTIAAKHAIAVEANTGKILYEKDATQPVEIASITKLITVYLVYEALENGSITLSTPVDISDYPYQLTTNSEASNIPMEARNYTVEELLEATLVSSANSAAIALAEKIAGSEKDFVDMMRAKLLEWGIQDATVVNTTGLNNETLGDNIYPGSKKDEENKLSAYDVAIVARNLIKKYPQVLEITKKPSSTFAGMTITSTNYMLEGMPAYRGGFDGLKTGTTDKAGESFVGTTVEKGMRVITVVLNADHQDNNPYARFTATSSLMDYISSTFTLRKIVQQGDAYQDSKAPVQDGKEDTVIAVAPEDIYLIERVGNQSSQSVQFTPDSKAIPAPLEAGTVVGHLTYEDKDLIGQGYITTERPSFEMVADKKIEK”, “soluble”.
Under “MQVEVGQIVNTHGIKGEVKVKSNSDFTDTRFQPGEVLTVNHQNHEEQLTVLSYRVHKGFHMLKFEGINNINDVEQYKGDYLYQERDHEDIELAENEYYYSDIIGSTVFDNDNQPIGRVINIFETGANDVWVVKGEKEYLIPYIADVVKEIDIENKTIRITPMEGLLDLEHHHHHH” stands “soluble”.
